Residue numbers refer to the chain shown, from its start.
Assays:
[1] = target: T1, human Nectin-4 expressed on cells (human, UniProt Q96NY8 32-510); assay: flow cytometry on SUM185 cells, antibody at 10 ug/ml
T1 sequence: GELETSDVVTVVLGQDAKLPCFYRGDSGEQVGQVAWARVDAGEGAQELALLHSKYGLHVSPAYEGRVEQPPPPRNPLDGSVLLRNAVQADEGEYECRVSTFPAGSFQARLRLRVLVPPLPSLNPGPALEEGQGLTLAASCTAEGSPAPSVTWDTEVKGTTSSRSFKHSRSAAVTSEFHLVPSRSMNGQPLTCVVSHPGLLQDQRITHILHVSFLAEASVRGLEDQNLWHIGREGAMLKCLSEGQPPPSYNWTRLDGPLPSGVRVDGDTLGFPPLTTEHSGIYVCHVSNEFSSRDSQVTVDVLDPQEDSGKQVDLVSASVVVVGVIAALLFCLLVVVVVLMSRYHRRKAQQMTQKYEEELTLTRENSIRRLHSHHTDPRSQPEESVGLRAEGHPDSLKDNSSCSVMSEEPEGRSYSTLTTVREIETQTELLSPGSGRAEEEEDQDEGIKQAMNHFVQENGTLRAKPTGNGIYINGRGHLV

[2] = target: T1, human Nectin-4 expressed on cells; assay: flow cytometry on SUM190 cells, antibody at 10 ug/ml
[3] = target: T1, human Nectin-4 expressed on cells; assay: flow cytometry (FL2-A) on SUM185 human breast cancer cells; unstained cells 71.5
[4] = target: HER2 on human breast cancer tumor cells (human) (UniProt P04626); assay: as above
[5] = tested on: UC (patients); conditions: EV-201 Phase 2 study; cited from earlier work
[6] = tested on: MC-38 cells endogenously expressing MDR1 P-glycoprotein (Pgp), engineered to express Nectin-4; assay: In vitro efficacy of ADCs in Pgp-expressing cancer model (CTG); assay type: cell-based, murine; conditions: for anti-tumor activity in presence or absence of the Pgp inhibitor cyclosporine: 150 nM ADC, normalized to control antibody, cyclosporin A 5 μM, FIG. 10B
Procedure: MC-38 cells that endogenously express MDR1 P-glycoprotein (Pgp) were engineered to express Nectin-4 and cultured in DMEM+10% FBS. Cells were either treated with vehicle (DSMO) or with cyclosporin A (5 μM, stock solution in DMSO) known to act as an inhibitor of Pgp, in presence of ADCs.
The ADCs and the equivalent isotype control ADCs were used at dose range from 150 to 2.3 10^−3 nM. After five days of co-incubation with cells, cell viability was measured by addition of Cell Titer Glo™ (CTG) substrate. Luminescence vs. Ab concentration was plotted.

[7] = tested on: SUM185 cells; assay: Comparative in vitro killing of SUM185 cells (model of anti-HER2 resistance), CTG; assay type: cell-based, human; conditions: 5 days, 5E7 ADC DAR=8, PADCEV DAR=4, FIG. 5
Procedure: This setting was used as a model of anti-HER2 resistance. SUM185 cells express Nectin-4 at relatively high levels, with Nectin-4 expression levels about twice that of HER2 in these cells (see Example 1). In this experiment, the 5E7 antibody was tested as an ADC having DAR=8 along with PADCEV™ (DAR=4, specification for FDA-approved PADCEV™) and control antibodies all conjugated with the same toxin at equivalent drug to antibody ratios. 5E7 was conjugated with a camptothecin analogue Dxd via the ggfg-Dxd linker.
Briefly, dose-ranges of each tested Ab (starting point 150 nM, dilution factor 2 for 3 points, then 5 for 5 points) were incubated on cells for 5 days before cell viability measurement by addition of CTG substrate. Luminescence vs. Ab concentration was plotted on graph.
For each ADC, a concentration range of ADC was incubated with nectin-4-expressing cells. After incubation, CTG substrate was added at 1:1 ratio and the luminescent signal was read with a plate reader (Enspire), allowing quantification of the ATP present (indicator of metabolically active cells) which was proportional to cell viability.

[8] = target: T2, cynomolgus Nectin-4 protein expressed on CHO cells (cynomolgus, UniProt Q96NY8 32-510 (human entry)); assay: flow cytometry on CHO cells expressing cynomolgus Nectin-4, Median MFI (PE)
T2 construct: also called Cyno Nectin-4 V5
T2 chain: T1 sequence with V39A, I230V, A437T
Procedure: (§1) Anti-Nectin-4 antibodies were tested by flow cytometry for binding to different CHO cell lines made to express respectively the mouse, cynomolgus and rat Nectin-4 protein (including an N-terminal V5 tag not shown in the sequences below).

[9] = target: T3, rat Nectin-4 protein expressed on CHO cells (rat, UniProt Q8R007 31-508 (mouse entry)); assay: flow cytometry on CHO cells expressing rat Nectin-4, Median MFI (PE)
T3 construct: no cleavage site is stated; also called Rat Nectin-4 V5
T3 chain: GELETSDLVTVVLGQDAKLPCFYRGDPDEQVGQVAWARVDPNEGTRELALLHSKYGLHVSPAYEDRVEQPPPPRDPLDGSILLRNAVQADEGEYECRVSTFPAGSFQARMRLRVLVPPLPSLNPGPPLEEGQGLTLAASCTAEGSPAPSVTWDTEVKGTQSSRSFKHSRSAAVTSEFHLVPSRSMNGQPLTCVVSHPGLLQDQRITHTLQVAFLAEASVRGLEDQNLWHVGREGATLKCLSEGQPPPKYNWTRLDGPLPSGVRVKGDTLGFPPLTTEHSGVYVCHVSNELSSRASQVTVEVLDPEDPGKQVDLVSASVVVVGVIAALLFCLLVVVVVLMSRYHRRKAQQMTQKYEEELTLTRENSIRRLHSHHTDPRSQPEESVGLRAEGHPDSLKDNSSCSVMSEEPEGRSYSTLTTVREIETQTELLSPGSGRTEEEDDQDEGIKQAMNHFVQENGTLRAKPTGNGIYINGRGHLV
Procedure: as §1

[10] = tested on: SUM190 cells subcutaneously engrafted in CB17-SCID mice; assay: In vivo efficacy of Dxd and exatecan ADCs in SUM190 model; set-up: species or system mouse; conditions: single i.v. injection 10 mg/kg; FIG. 9C
Procedure: Human breast cancer cell line SUM190PT was cultured in the following cell culture medium containing Ham's F12, FBS 1 g/L, HEPES 10 mM, Ethanolamine 5 mM, Insulin 5 μg/mL, Hydrocortisone 1 μg/mL, Apo-Transferrin 5 μg/mL, Triiodo Thyronine (T3) 6.7 ng/ml, Sodium selenite 8.7 ng/ml.
Immunodeficient CB17-SCID mice were used at 7 to 8 weeks of age. […] The ggfg-Dxd linker will release Dxd (deruxtecan) upon cleavage and the PEG (8U)-Val-Ala-PAB-Exatecan linker will release exatecan upon cleavage.
SUM190 cells were subcutaneously engrafted in CB17-SCID immunodeficient mice at the dose of 0.5 million in 100 μl of Matrigel containing growth factor diluted at ½ in PBS. At day 21, when tumors reached a mean volume at 146.9±63.2 mm^3 or 213.2±77.5 mm^3 depending on the experiment, mice were randomized into groups of 8 or 9 mice depending on the experiment and treated intravenously with a single injection of 3 or 10 mg/kg body weight ADC or PBS as control. Tumor growths were followed twice a week. Kaplan Meier survival curves were established by using GraphPad Prism V7 software according to the following criteria: when the tumor volume reached 1500 mm^3, mice were euthanized and considered dead on the day of sacrifice (D). When tumors were highly necrotic, mice were euthanized and considered dead on the same day (D).

Work on “anti-Nectin-4 antibody (ASG-22ME modified as a human IgG1 isotype containing a N297Q mutation)” yielded an MFI [1] of 4330 MFI and an MFI [2] of 991 MFI.

With Control Antibody the Median of fluo. [3] was 94.5 and the Median of fluo. [4] was 94.5.

In the case of PADCEV™, the “CR (complete response rate)” value [5] is given as 12%, the “ORR (objective response rate)” value [5] is given as 44% and the “discontinuation due to clinical symptoms” value [5] is given as 5%. For the same molecule, the “discontinuation due to progressive disease as assessed by RECIST” value [5] was 48%, the “patients that discontinued experienced adverse events, notably neuropathy” value [5] was 18% and the “anti-tumor activity in presence or absence of the Pgp inhibitor cyclosporine” value [6] was “negatively affected by Pgp”. For the same molecule, the “killing of SUM185 cells / reduction of cell viability” value [7] was “able to kill the SUM185 more efficiently than ENHERTU™”.

B1: enfortumab (antibody, V domains shown)
VH: EVQLVESGGGLVQPGGSLRLSCAASGFTFSSYNMNWVRQAPGKGLEWVSYISSSSSTIYYADSVKGRFTISRDNAKNSLSLQMNSLRDEDTAVYYCARAYYYGMDVWGQGTTVTVSS
VL: DIQMTQSPSSVSASVGDRVTITCRASQGISGWLAWYQQKPGKAPKFLIYAASTLQSGVPSRFSGSGSGTDFTLTISSLQPEDFATYYCQQANSFPPTFGGGTKVEIKR
In the case of B1, the “EC50 (read off the curve)” value [8] is reported as roughly 0.08 µg/mL and the “EC50 (read off the curve)” value [9] is reported as roughly 0.2 µg/mL.

B2: 5E7-exatecan: 5E7 conjugated to the exatecan linker PEG (8U)-Val-Ala-PAB-Exatecan (drawing 79), DAR=8 (conjugate)
VH: QVQLQQPGAELVKPGASVKLSCKASGYIFTSYWMHWVKQRPGQGLEWIGEIDPSDSYTNYNQKFKGKATLTLDKSSSTTYMQLSSLTSEDSAVYYCVRGYGNYGDYWGQGTTLTVSSASTKGP
VL: DVVMTQAAFSNPVTLGTSASISCRSSKSLLHSNGITYLYWYLQKPGQSPQLLIYQMSNLASGVPDRFSSSGSGTDFTLRISRVEAEDVGVYYCAQNLELPWTFGGGTKLEIKRTVAAP
For B2, the “efficiency in controlling tumor growth in mice” value [10] was “higher efficiency in controlling tumor growth in mice compared 5E7 conjugated with ggfg-Dxd”, the “anti-tumor activity in presence or absence of the Pgp inhibitor cyclosporine” value [6] was “highly effective” and the “decrease of cell viability (luminescence)” value ([6]; MC-38 Pgp/Nectin-4 cells, 5 days, setting of drug resistance, FIG. 10A) was “highly potent to decrease cell viability”.

Reference: patent publication US20250297004A1, “NECTIN-4 BINDING AGENTS” (INNATE PHARMA, priority 2022, published 2025)
